Target: recombinant His-tagged CD38 (Homo sapiens, UniProt P28907)
Assay: Pepscan-based ELISA of His-tagged CD38 on CD31 peptide arrays
Type: binding
Conditions: sample with the highest signal; for Value (binding intensity of His-tagged CD38), LOOP15 conformational peptide array: mimic type LOOP15 (single loop, mP2 CLIPS); for Value (binding intensity of His-tagged CD38), BET conformational peptide array: mimic type BET (β-turn mimic, mP2 CLIPS)
Excerpt: Different sets of sCD31 peptides were synthesized according to the following designs. Note that actual order of peptides on mini-cards in some was randomized. • Set #1 • Mimic type: linear • Label: LIN15 • Linear peptides of 15 consecutive amino acid residues in length, derived from the target sequence of sCD31 with an offset of […]. • Set #2 • Mimic type: single loop (mP2 CLIPS) • Label: LOOP7 • Constrained peptides of 9 amino acid residues in length. On positions 2-8 are incorporated 7 consecutive amino acid residues derived from the target sequence of sCD31 with an offset of 1.3 residues. Cys residues were inserted on positions 1 and 9 and joined by mP2 CLIPS in order to create a loop mimic. Native Cys residues, if present, were replaced by Ser residues. • Set #3 • Mimic type: single loop, (mP2 CLIPS) • Label: LOOP15 • Constrained peptides of 17 amino acid residues in length. On positions 2-16 are incorporated 15 consecutive amino acid residues derived from the target sequence of sCD31 with an offset of […]. Cys residues were inserted on positions 1 and 17 and joined by mP2 CLIPS in order to create a loop mimic. Native Cys residues, if present, were replaced by Ser residues. • Set #4 • Mimic type: β-turn peptide mimics (mP2 CLIPS) • Label: BET • β-turn peptide mimics of 22 amino acid residues in length. On positions 2-21 are incorporated 20 consecutive amino acid residues derived from the target sequence of sCD31 with an offset of 1.3 residues. Residues on positions 11 and 12 are replaced by a Pro-Gly motif in order to induce the β-turn formation. Cys residues were inserted on positions 1 and 22 and joined by mP2 CLIPS in order to stabilize the mimic. Native Cys residues, if present, were replaced by Ser residues.
To reconstruct epitopes of sCD31, a library of peptide-based peptide mimics was synthesized using Fmoc-based solid-phase peptide synthesis. An amino functionalized polypropylene support was obtained by grafting with a hydrophilic polymer formulation, followed by reaction with t-butyloxycarbonyl-hexamethylenediamine (BocHMDA) using dicyclohexylcarbodiimide (DCC) with N-hydroxybenzotriazole (HOBt) and subsequent cleavage of the Boc-groups using trifluoroacetic acid (TFA).
Standard Fmoc-peptide synthesis was used to synthesize peptides on the amino-functionalized solid support by custom modified JANUS liquid handling stations (Perkin Elmer).
Synthesis of structural mimics was done using CLIPS technology. CLIPS technology allows to structure peptides into single loops, double loops, triple loops, sheet-like folds, helix-like folds, and combinations thereof. CLIPS templates are coupled to cysteine residues. The side-chains of multiple cysteines in the peptides are coupled to one or two CLIPS templates. For example, a 0.5 mM solution of the P2 CLIPS (2,6-bis(bromomethyl)pyridine) is dissolved in ammonium bicarbonate (20 mM, pH 7.8)/acetonitrile (1:3, v/v). This solution is added onto the peptide arrays. The CLIPS template binds to side-chains of two cysteines as present in the solid-phase bound peptides of the peptide-arrays (455 wells plate with 3-µL wells). The peptide arrays are gently shaken in the solution for 30 to 60 minutes while completely covered in solution.
Finally, the peptide arrays are washed extensively with excess of H2O and sonicated in disrupt-buffer containing 1% SDS / 0.1 % 2,2′-(ethylenedioxy)diethanethiol in PBS (pH 7.2) at 70° C. for 30 minutes, followed by sonication in H2O for another 45 minutes.
The binding of the sample (recombinant His-tagged CD38; 9 µg/mL and 20 µg/mL) to each of the synthesized peptides was tested in a pepscan-based ELISA. The peptide arrays were incubated with primary sample solution (overnight at 4° C.). […]

Substance	Value (binding intensity of His-tagged CD38), LOOP15 conformational peptide array [mAU]	Value (binding intensity of His-tagged CD38), BET conformational peptide array [mAU]
242 (CKSTESYFIPEVRIYDC) [compound 242]	528	–
243 (CSTESYFIPEVRIYDSC) [compound 243]	660	–
244 (CTESYFIPEVRIYDSGC) [compound 244]	465	–
245 (CESYFIPEVRIYDSGTC) [compound 245]	373	–
246 (CYFIPEVRIYDSGTYKC) [compound 246]	416	–
247 (CKREKNSRDQNFVILEC) [compound 247]	516	–
248 (CREKNSRDQNFVILEFC) [compound 248]	1073	–
249 (CEKNSRDQNFVILEFPC) [compound 249]	566	–
250 (CKNSRDQNFVILEFPVC) [compound 250]	624	–
251 (CDQNFVILEFPVEEQDC) [compound 251]	634	–
252 (CQNFVILEFPVEEQDRC) [compound 252]	729	–
253 (CNFVILEFPVEEQDRVC) [compound 253]	524	–
254 (CFVILEFPVEEQDRVLC) [compound 254]	550	–
255 (CSTIQVTHLAQEFPEIC) [compound 255]	320	–
256 (CTIQVTHLAQEFPEIIC) [compound 256]	504	–
257 (CIQVTHLAQEFPEIIIC) [compound 257]	797	–
258 (CQVTHLAQEFPEIIIQC) [compound 258]	617	–

Substance	Value (binding intensity of His-tagged CD38), LOOP15 conformational peptide array [mAU]	Value (binding intensity of His-tagged CD38), BET conformational peptide array [mAU]
259 (CVTHLAQEFPEIIIQKC) [compound 259]	343	–
260 (CSSRISKVSSIVVNITC) [compound 260]	287	–
261 (CRISKVSSIVVNITELC) [compound 261]	567	–
262 (CISKVSSIVVNITELFC) [compound 262]	795	–
263 (CSKVSSIVVNITELFSC) [compound 263]	593	–
264 (CKVSSIVVNITELFSKC) [compound 264]	211	–
265 (CTTSHVKPQHPGLFYKDDVLFC) [compound 265]	–	679
266 (CTSHVKPQHQPGFYKDDVLFYC) [compound 266]	–	725
267 (CSHVKPQHQMPGYKDDVLFYNC) [compound 267]	–	662
268 (CVKPQHQMLFPGDDVLFYNISC) [compound 268]	–	792
269 (CKPQHQMLFYPGDVLFYNISSC) [compound 269]	–	641
270 (CYKDDVLFYNPGSMKSTESYFC) [compound 270]	–	378
271 (CKDDVLFYNIPGMKSTESYFIC) [compound 271]	–	695
272 (CDDVLFYNISPGKSTESYFIPC) [compound 272]	–	524
273 (CVLFYNISSMPGTESYFIPEVC) [compound 273]	–	632
274 (CKMVKLKREKPGRDQNFVILEC) [compound 274]	–	897
